Here are results for four molecules from patent US20240025959A1 (UNIVERSITY OF SOUTHERN CALIFORNIA, published 2024).

B1: ATG9A (mouse, endogenous in BMDMs) (other, UniProt Q68FE2 2-839, looked up)
chain: AQFDTEYQRLEASYSDSPPGEEDLLVHVAEGSKSPWHHIENLDLFFSRVYNLHQKNGFTCMLIGEMFELMQFLFVVAFTTFLVSCVDYDILFANKMVNHSLHPTEPVKVTLPDAFLPAQVCSARIQENGSLITILVIAGVFWIHRLIKFIYNICCYWEIHSFYLHALRIPMSALPYCTWQEVQARIVQTQKEHQICIHKRELTELDIYHRILRFQNYMVALVNKSLLPLRFRLPGLGEVVFFTRGLKYNFELILFWGPGSLFLNEWSLKAEYKRGGQRLELAQRLSNRILWIGIANFLLCPLILIWQILYAFFSYAEVLKREPGALGARCWSLYGRCYLRHFNELEHELQSRLNRGYKPASKYMNCFLSPLLTLLAKNGAFFAGSILAVLIALTIYDEDVLAVEHVLTTVTLLGVTVTVCRSFIPDQHMVFCPEQLLRVILAHIHYMPDHWQGNAHRSQTRDEFAQLFQYKAVFILEELLSPIVTPLILIFCLRPRALEIIDFFRNFTVEVVGVGDTCSFAQMDVRQHGHPQWLSGGQTEASVYQQAEDGKTELSLMHFAITNPGWQPPRESTAFLGFLKEQVQRDGAAAGLAQGGLLPENALFTSIQSLQSESEPLSLIANVVAGSSCRGPSLSRDLQGSRHRADVASALRSFSPLQPGAAPQGRVPSTMTGSGVDARTASSGSSVWEGQLQSLVLSEYASTEMSLHALYMHQLHKQQTQAEPERHVWHRRESDESGESAPEEGGEGARAPQPIPRSASYPCATPRPGAPETTALHGGFQRRYGGITDPGTVPRGPSHFSRLPLGGWAEDGQPASRHPEPVPEEGSEDELPPQVHKV
notes: Endogenous protein in mouse BMDM lysates

For assay [1], the target named is NLRP3 (mouse, endogenous in BMDMs) (mouse, UniProt Q8R4B8 1-1033). Briefly: endogenous co-IP; WT and Becn2 KO BMDM lysates (untreated or LPS 3 h) immunoprecipitated with ATG9A antibodies, immunoblot (FIG. 30F).
Chain of NLRP3 (mouse, endogenous in BMDMs) (Q8R4B8 whole entry): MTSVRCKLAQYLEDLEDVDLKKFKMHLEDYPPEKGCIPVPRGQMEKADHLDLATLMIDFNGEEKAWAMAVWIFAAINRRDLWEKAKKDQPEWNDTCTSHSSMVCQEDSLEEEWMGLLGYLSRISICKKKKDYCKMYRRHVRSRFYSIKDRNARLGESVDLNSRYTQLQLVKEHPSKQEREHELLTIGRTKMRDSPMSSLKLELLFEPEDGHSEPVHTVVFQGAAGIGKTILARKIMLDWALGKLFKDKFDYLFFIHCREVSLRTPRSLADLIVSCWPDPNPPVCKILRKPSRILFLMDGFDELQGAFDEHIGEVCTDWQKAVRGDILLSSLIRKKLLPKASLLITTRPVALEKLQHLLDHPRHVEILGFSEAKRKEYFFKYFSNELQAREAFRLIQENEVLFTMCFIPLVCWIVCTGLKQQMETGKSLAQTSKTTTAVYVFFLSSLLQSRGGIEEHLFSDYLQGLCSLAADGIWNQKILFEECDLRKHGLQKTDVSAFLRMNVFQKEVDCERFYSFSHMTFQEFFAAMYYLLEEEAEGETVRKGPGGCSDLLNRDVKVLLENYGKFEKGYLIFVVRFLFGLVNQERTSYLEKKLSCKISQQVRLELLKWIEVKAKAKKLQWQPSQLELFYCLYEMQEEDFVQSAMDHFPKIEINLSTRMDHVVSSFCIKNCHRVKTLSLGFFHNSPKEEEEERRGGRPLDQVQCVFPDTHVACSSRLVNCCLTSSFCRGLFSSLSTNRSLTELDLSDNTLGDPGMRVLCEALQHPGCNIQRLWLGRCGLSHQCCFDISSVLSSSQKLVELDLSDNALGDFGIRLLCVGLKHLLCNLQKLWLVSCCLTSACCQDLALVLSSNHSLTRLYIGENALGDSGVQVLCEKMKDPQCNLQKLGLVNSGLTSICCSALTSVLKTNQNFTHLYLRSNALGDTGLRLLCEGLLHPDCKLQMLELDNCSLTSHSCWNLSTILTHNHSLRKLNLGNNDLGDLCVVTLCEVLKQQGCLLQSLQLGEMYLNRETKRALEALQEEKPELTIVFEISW
Another assay has as its target T1, ATG9A (human) (human, UniProt Q7Z3C6 1-839).
T1 construct: Transmembrane protein; co-IP from RIPA lysates; Tagged and endogenous human forms kept under one id; also called Flag-ATG9A; HA-ATG9A
T1 sequence (looked up): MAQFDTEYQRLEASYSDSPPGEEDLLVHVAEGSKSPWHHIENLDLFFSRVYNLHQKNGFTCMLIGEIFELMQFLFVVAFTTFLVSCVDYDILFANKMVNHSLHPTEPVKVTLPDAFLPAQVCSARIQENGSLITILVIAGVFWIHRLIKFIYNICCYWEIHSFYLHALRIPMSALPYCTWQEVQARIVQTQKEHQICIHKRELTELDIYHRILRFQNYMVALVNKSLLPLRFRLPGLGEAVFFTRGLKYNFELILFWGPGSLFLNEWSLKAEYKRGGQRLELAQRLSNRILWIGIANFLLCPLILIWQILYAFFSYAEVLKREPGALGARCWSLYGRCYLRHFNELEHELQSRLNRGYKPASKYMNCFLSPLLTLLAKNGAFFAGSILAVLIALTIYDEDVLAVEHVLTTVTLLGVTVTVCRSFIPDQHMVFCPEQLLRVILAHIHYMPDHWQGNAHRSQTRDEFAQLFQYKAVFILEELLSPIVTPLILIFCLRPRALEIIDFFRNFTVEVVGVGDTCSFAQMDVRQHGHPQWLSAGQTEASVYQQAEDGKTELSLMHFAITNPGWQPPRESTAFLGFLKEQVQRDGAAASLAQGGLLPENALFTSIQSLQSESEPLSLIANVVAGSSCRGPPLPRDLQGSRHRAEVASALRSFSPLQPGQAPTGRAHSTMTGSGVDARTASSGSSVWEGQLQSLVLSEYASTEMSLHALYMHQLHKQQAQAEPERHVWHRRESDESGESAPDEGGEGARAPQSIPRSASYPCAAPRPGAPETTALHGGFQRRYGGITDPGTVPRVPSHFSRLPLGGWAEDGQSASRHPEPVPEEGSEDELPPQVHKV
In words: co-IP with anti-Flag beads; WT, BECN2 KO and ULK1 KO HEK293T cells co-transfected with HA-ATG9A and Flag-AIM2 (FIG. 30D).

Assay [2] has as its target B1. In words: endogenous co-IP; BMDM lysates (untreated or LPS) immunoprecipitated with MEKK3 antibodies, immunoblot (FIG. 12D).
For assay [3], the target named is T2, Beclin 2 (human, full length) (human, UniProt A8MW95 1-431).
T2 construct: All tagged and endogenous human forms are kept under this one id; the form used is named under assay; also called BECN2; Flag-Beclin 2
T2 sequence: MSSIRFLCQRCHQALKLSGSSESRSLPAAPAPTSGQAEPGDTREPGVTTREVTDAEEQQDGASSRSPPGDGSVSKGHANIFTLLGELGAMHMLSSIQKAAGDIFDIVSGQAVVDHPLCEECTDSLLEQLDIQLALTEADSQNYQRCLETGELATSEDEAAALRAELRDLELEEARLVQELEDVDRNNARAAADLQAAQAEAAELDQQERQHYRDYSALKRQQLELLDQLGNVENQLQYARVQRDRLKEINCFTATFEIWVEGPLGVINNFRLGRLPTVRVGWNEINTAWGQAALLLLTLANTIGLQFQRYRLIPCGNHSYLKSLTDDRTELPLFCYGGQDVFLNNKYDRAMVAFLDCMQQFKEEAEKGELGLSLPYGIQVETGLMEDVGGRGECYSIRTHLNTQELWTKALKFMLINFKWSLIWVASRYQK
In words: co-IP with anti-Flag beads and immunoblot; HEK293T cells co-transfected with HA-Beclin 2 and a Flag-tagged plasmid (FIG. 25A). For orientation: Immunoblotting shows a protein as a band on a membrane.
Experimental: Cell lysates were immunoprecipitated with anti-Flag beads and immunoblotted using indicated antibodies. […] Cell lysates were immunoprecipitated with anti-Flag beads and immunoblotted using indicated antibodies.
Whole cell lysates obtained 24 h post-transfection or via ligand stimulation were obtained using RIPA lysis buffer and shook on ice for 15 min. The HEK293T cell lysates were immunoprecipitated with anti-Flag conjugated beads (BioLegend) at 4° C. overnight.

Experimental for ATG9A (human): Pearson's correlation coefficient for colocalization was analyzed using Image J Coloc 2. Graph represents mean±s.e.m. (at least 30 cells were analyzed per condition). Representative images showing the colocalization were obtained using confocal microscopy. Scale bar: 5 μm. […] Pearson's correlation coefficient for colocalization was analyzed using Image J Coloc 2. Graph represents mean±s.e.m. (at least 30 cells were analyzed per condition). Representative images showing the colocalization were obtained using confocal microscopy. Scale bar: 5 μm. […] Data are representative of at least three independent experiments. […] MVBs, multivesicular bodies.

For B1, the binding result in assay [1] is listed as “binds”.

B2: AIM2 (human, full length) (other, UniProt O14862 1-343, looked up)
chain: MESKYKEILLLTGLDNITDEELDRFKFFLSDEFNIATGKLHTANRIQVATLMIQNAGAVSAVMKTIRIFQKLNYMLLAKRLQEEKEKVDKQYKSVTKPKPLSQAEMSPAASAAIRNDVAKQRAAPKVSPHVKPEQKQMVAQQESIREGFQKRCLPVMVLKAKKPFTFETQEGKQEMFHATVATEKEFFFVKVFNTLLKDKFIPKRIIIIARYYRHSGFLEVNSASRVLDAESDQKVNVPLNIIRKAGETPKINTLQTQPLGTIVNGLFVVQKVTEKKKNILFDLSDNTGKMEVLGVRNEDTMKCKEGDKVRLTFFTLSKNGEKLQLTSGVHSTIKVIKAKKKT
notes: also called Flag-AIM2; GFP-AIM2
As to B2, in the assay with ATG9A (human), the binding result is recorded as “binds”.

B3: MEKK3 (mouse, endogenous in BMDMs) (enzyme, UniProt Q61084 1-626, looked up)
chain: MDEQEALDSIMKDLVALQMSRRTRLSGYETMKNKDTGHPNRQSDVRIKFEHNGERRIIAFSRPVRYEDVEHKVTTVFGQPLDLHYMNNELSILLKNQDDLDKAIDILDRSSSMKSLRILLLSQDRNHTSSSPHSGVSRQVRIKPSQSAGDINTIYQAPEPRSRHLSVSSQNPGRSSPPPGYVPERQQHIARQGSYTSINSEGEFIPETSEQCMLDPLSSAENSLSGSCQSLDRSADSPSFRKSQMSRARSFPDNRKECSDRETQLYDKGVKGGTYPRRYHVSVHHKDYNDGRRTFPRIRRHQGNLFTLVPSSRSLSTNGENMGVAVQYLDPRGRLRSADSENALTVQERNVPTKSPSAPINWRRGKLLGQGAFGRVYLCYDVDTGRELASKQVQFDPDSPETSKEVSALECEIQLLKNLQHERIVQYYGCLRDRAEKILTIFMEYMPGGSVKDQLKAYGALTESVTRKYTRQILEGMSYLHSNMIVHRDIKGANILRDSAGNVKLGDFGASKRLQTICMSGTGIRSVTGTPYWMSPEVISGEGYGRKADVWSLGCTVVEMLTEKPPWAEYEAMAAIFKIATQPTNPQLPSHISEHGRDFLRRIFVEARQRPSAEELLTHHFAQLVY
notes: Endogenous protein in mouse BMDM lysates; also called Map3k3
With B3, the binding result in assay [2] was “binds”.

B4: caspase 1 (enzyme, human, UniProt P29466 1-404, looked up)
chain: MADKVLKEKRKLFIRSMGEGTINGLLDELLQTRVLNKEEMEKVKRENATVMDKTRALIDSVIPKGAQACQICITYICEEDSYLAGTLGLSADQTSGNYLNMQDSQGVLSSFPAPQAVQDNPAMPTSSGSEGNVKLCSLEEAQRIWKQKSAEIYPIMDKSSRTRLALIICNEEFDSIPRRTGAEVDITGMTMLLQNLGYSVDVKKNLTASDMTTELEAFAHRPEHKTSDSTFLVFMSHGIREGICGKKHSEQVPDILQLNAIFNMLNTKNCPSLKDKPKVIIIQACRGDSPGVVWFKDSVGVSGNLSLPTTEEFEDDAIKKAHIEKDFIAFCSSTPDNVSWRHPTMGSVFIGRLIEHMQEYACSCDVEEIFRKVRFSFEQPDGRAQMPTTERVTLTRCFYLFPGH
notes: also called Flag-caspase 1
In the case of B4, the binding result in assay [3] was “binds”.
